This assay deals with VC-Vam7 (yeast) (UniProt P32912). As to the kind of experiment: split reporter.
UniProt P32912, sequence (P32912 whole entry): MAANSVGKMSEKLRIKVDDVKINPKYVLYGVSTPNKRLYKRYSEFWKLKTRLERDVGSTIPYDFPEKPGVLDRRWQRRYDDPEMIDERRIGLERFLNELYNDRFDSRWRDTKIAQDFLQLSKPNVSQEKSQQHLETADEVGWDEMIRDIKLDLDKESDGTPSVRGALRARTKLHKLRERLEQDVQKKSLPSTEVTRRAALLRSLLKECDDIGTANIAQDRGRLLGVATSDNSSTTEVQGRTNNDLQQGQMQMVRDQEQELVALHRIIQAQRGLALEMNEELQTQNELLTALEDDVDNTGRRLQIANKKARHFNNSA

Consider “VN-Atg11 (from UniProt Q12527 1-1178) (natural protein)”, for which the percent of cells with a vYFP signal was > 90 % of cells.
